Assays:
[1] = molecular target: T1, P element transposase (delta 2-3) (UniProt Q7M3K2); experiment: cell_activity; details: germline remobilization in Drosophila, delta 2-3 at 99B
T1 sequence: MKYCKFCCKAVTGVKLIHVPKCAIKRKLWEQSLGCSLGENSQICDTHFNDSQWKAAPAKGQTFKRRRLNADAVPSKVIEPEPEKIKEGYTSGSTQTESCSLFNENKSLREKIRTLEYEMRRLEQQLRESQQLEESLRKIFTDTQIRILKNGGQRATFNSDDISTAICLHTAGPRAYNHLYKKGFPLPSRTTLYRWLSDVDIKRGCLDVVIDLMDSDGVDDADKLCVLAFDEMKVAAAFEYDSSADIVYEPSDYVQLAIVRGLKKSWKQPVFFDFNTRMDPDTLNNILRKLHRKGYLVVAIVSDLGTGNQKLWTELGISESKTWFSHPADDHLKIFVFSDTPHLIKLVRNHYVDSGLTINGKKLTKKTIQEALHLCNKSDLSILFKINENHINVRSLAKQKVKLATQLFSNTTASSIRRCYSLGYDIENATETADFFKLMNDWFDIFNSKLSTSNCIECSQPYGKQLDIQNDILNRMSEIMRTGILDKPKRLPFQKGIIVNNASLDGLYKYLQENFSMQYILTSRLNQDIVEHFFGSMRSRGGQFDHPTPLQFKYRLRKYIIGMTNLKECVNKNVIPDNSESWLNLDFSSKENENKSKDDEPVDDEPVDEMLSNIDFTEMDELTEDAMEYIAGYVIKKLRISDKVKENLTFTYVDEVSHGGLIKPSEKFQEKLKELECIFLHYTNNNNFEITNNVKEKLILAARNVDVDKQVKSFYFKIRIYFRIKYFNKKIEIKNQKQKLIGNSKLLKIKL

piggyBac transposase = experiment: cell_activity; details: germline remobilization rate in Drosophila with constitutive transposase; TTAA target; 10% with heat shock helper

| Substance | activity [1] | activity (piggyBac transposase) |
| --- | --- | --- |
| XP (P element) transposon | 50% | – |
| piggyBac transposon pB[w+] | – | 60% |

Reference: US20050229265
